The values that follow come from patent US20160367497A1, “METHODS AND COMPOSITIONS FOR TREATING NEUROPATHIES” (Washington University, priority 2007, published 2016).

For test [1], the system named is DRG neuronal explant cultures. Nature of the test: in vitro Wallerian degeneration assay, DRG explant neurite transection. Format: cell-based, mouse. Conditions: lentivirus-mediated expression in DRG neurons. On the procedure:
(§1) To identify the mechanism of delayed axonal degeneration mediated by the Wlds protein, we employed an in-vitro Wallerian degeneration model. Primary DRG explant neurons were infected with lentivirus expressing the appropriate proteins, and axons were injured by either removal of the neuronal cell body (transection) or growth in vincristine (toxic).
Mouse DRG explants from E12.5 embryos were cultured in the presence of 1 nM nerve growth factor. Non-neuronal cells were removed from the cultures by adding 5-fluorouracil to the culture medium. Transection of neurites was performed at 10-20 DIV using an 18-gauge needle to remove the neuronal cell bodies. […]
Quantitative analysis of axonal degeneration was performed as previously described (Zhai, et al., Neuron 39:217-25, 2003). […] Axons with a fragmented, non-refractile appearance were designated as “degenerated.” At each time point, at least 200 singly distinguishable axons were blindly scored from several randomly taken images of each culture. […] For calculations of neurite-covered area, digitally captured images from quadruplicate samples of two independent experiments were analyzed using analysis 3.1 software (Soft Imaging System, Lakewood, Colo.).
Cell culture, in vitro axotomy, and quantification of axonal degeneration. […] Quantitative analysis of neurite degeneration was performed.

Another test concerns DRG neuronal explant. Nature of the test: vincristine-induced axonal degeneration in DRG neuronal explants. Format: cell-based, mouse. The conditions noted are these: 0.5 μM vincristine for up to 9 d; lentiviral expression. The protocol: as §1
Quantitative analysis of axonal degeneration was performed as previously described (Zhai, et al., Neuron 39:217-25, 2003). Briefly, the cultures were examined using phase contrast microscopy at the indicated times. Axons with a fragmented, non-refractile appearance were designated as “degenerated.” At each time point, at least 200 singly distinguishable axons were blindly scored from several randomly taken images of each culture. Each condition was tested in triplicate explants in each experiment. Results were obtained from 2-4 independent experiments for each condition. Statistical analysis was performed by Student's T test. For calculations of neurite-covered area, digitally captured images from quadruplicate samples of two independent experiments were analyzed using analysis 3.1 software (Soft Imaging System, Lakewood, Colo.). […]

B1: NmPRT: nicotinamide phosphoribosyltransferase (protein, UniProt P43490 1-491, looked up)
Nicotinamide …: MNPAAEAEFNILLATDSYKVTHYKQYPPNTSKVYSYFECREKKTENSKLRKVKYEETVFYGLQYILNKYLKGKVVTKEKIQEAKDVYKEHFQDDVFNEKGWNYILEKYDGHLPIEIKAVPEGFVIPRGNVLFTVENTDPECYWLTNWIETILVQSWYPITVATNSREQKKILAKYLLETSGNLDGLEYKLHDFGYRGVSSQETAGIGASAHLVNFKGTDTVAGLALIKKYYGTKDPVPGYSVPAAEHSTITAWGKDHEKDAFEHIVTQFSSVPVSVVSDSYDIYNACEKIWGEDLRHLIVSRSTQAPLIIRPDSGNPLDTVLKVLEILGKKFPVTENSKGYKLLPPYLRVIQGDGVDINTLQEIVEGMKQKMWSIENIAFGSGGGLLQKLTRDLLNCSFKCSYVVTNGLGINVFKDPVADPNKRSKKGRLSLHRTPAGNFVTLEEGKGDLEEYGQDLLHTVFKNGKVTKSYSFDEIRKNAQLNIELEAAHH
For B1, the “axonal/neurite degeneration after transection” value in test [1] is on record as “shows axonal protection”.

B2: NMNAT1: nicotinamide mononucleotide adenylyltransferase1, lentivirus expressed (protein, UniProt Q9EPA7 1-285, looked up)
Nicotinamide/nicotinic acid …: MDSSKKTEVVLLACGSFNPITNMHLRLFELAKDYMHATGKYSVIKGIISPVGDAYKKKGLIPAHHRIIMAELATKNSHWVEVDTWESLQKEWVETVKVLRYHQEKLATGSCSYPQSSPALEKPGRKRKWADQKQDSSPQKPQEPKPTGVPKVKLLCGADLLESFSVPNLWKMEDITQIVANFGLICITRAGSDAQKFIYESDVLWRHQSNIHLVNEWITNDISSTKIRRALRRGQSIRYLVPDLVQEYIEKHELYNTESEGRNAGVTLAPLQRNAAEAKHNHSTL
Regarding B2, the “axon length and refractility” value in the test on DRG neuronal explant is “maintained their original length and refractility”.
